Test [1] concerns the target mouse CTLA-4 Fc (Chimerigen) (mouse) (UniProt P09793). Kind of test: FACS competition: inhibition of 2.5 nM mCTLA-4 Fc binding to Raji cells (B7.1, B7.2).
Test [2] deals with human CTLA-4 on the cell surface (transfected CHO and A431 cells; CD152-expressing cells of human tonsil) (human) (UniProt P16410). The experiment in a line: indirect immunoperoxidase staining of cryosections; CD152-expressing cells in human tonsil (positive control tissue), source HT662; 5 µg/mL; scale ± to 4+ (4+ = intense).
For test [3], the target named is human CTLA-4-Fc (Chimerigen) (human) (UniProt P16410). The experiment in a line: FACS competition: inhibition of 2.5 nM hCTLA-4 Fc binding to Raji cells (B7.1, B7.2).
The target is the same in test [4]. The experiment in a line: competition FACS: 2.5 nM human CTLA-4 Fc pre-incubated with the antagonist, then staining of Raji cells; % inhibition of CTLA-4 Fc binding; blocked ligands B7.1 and B7.2.
Test [5] concerns the target human CTLA-4 on the cell surface (transfected CHO and A431 cells; CD152-expressing cells of human tonsil) (human) (UniProt P16410). Kind of test: indirect immunoperoxidase staining of cryosections; CD152-expressing cells in human tonsil (positive control tissue), source HT343; 5 µg/mL; scale ± to 4+ (4+ = intense).
For test [6] the target is unchanged. The experiment in a line: indirect immunoperoxidase staining of cryosections; spleen HT337, mononuclear cells, white pulp (membrane, frequent); 5 µg/mL [Fig.20 continued, no label on the sheet].
The target is the same in test [7]. Kind of test: indirect immunoperoxidase staining of cryosections; tonsil HT664, mononuclear cells, follicular>>interfollicular (membrane); 5 µg/mL [Fig.20 continued, no label on the sheet].
Test [8] shares this target. Kind of test: indirect immunoperoxidase staining of cryosections; kidney HT268, mononuclear cells, interstitial, inflammatory (membrane, rare); 5 µg/mL [Fig.20 continued, no label on the sheet].
Test [9] deals with human CTLA-4-Fc (Chimerigen) (human) (UniProt P16410). The experiment in a line: competition FACS: HuCTLA4-Ig 5 ug/ml (as printed on the axis) pre-incubated with the antagonist, then staining of P815 cells transfected with human B7.2; blocked ligand B7.2.

For orientation: IC50 means the concentration that inhibits the measured activity by half.

Take “anti-mouse CTLA-4 monoclonal antibody 4F10 (hybridoma UC10-4F10-11, ATCC #HB-304)”: the IC50 in test [1] was 4.1 nM.

For “anti-human CTLA-4 monoclonal antibody BNI3 (Becton Dickinson)”, the staining intensity grade in [2], in test [5], in test [6], in test [7] and in [8] was 4 + each time. Besides, the half-inhibitory concentration (IC50) in test [3] came to 2.1 nM. For the same substance, the IC50 (read off the curve) in [4] came out at 2 nM.

For “anti-human CTLA-4 monoclonal antibody 14D3 (eBioscience)”, the IC50 in test [3] is 1.9 nM. In [9], this substance showed an IC50 (read off the curve) of 50 nM.

Source of the values: patent US20090042785A1.
